# Test results: publication PMC8784325, “The ubiquitin-binding domain of DNA polymerase η directly binds to DNA clamp PCNA and regulates translesion DNA synthesis” (The Journal of Biological Chemistry, 2021)
# B1: ScPolη F627A,F628A (protein, UniProt Q04049 1-632, looked up, variant F627A F628A)
# DNA polymerase eta: MSKFTWKELIQLGSPSKAYESSLACIAHIDMNAFFAQVEQMRCGLSKEDPVVCVQWNSIIAVSYAARKYGISRMDTIQEALKKCSNLIPIHTAVFKKGEDFWQYHDGCGSWVQDPAKQISVEDHKVSLEPYRRESRKALKIFKSACDLVERASIDEVFLDLGRICFNMLMFDNEYELTGDLKLKDALSNIREAFIGGNYDINSHLPLIPEKIKSLKFEGDVFNPEGRDLITDWDDVILALGSQVCKGIRDSIKDILGYTTSCGLSSTKNVCKLASNYKKPDAQTIVKNDCLLDFLDCGKFEITSFWTLGGVLGKELIDVLDLPHENSIKHIRETWPDNAGQLKEFLDAKVKQSDYDRSTSNIDPLKTADLAEKLFKLSRGRYGLPLSSRPVVKSMMSNKNLRGKSCNSIVDCISWLEVFCAELTSRIQDLEQEYNKIVIPRTVSISLKTKSYEVYRKSGPVAYKGINFQSHELLKVGIKFVTDLDIKGKNKSYYPLTKLSMTITNFDIIDLQKTVVDMFGNQVHTFKSSAGKEDEEKTTSSKADEKTPKLECCKYQVTFTDQKALQEHADYHLALKLSEGLNGAEESSKNLSFGEKRLLFSRKRPNSQHTATPQKKQVTSSKNILSAATRKK
# Tests used:
# [1] = tested on: rad30Δ S. cerevisiae strain; settings: S. cerevisiae strains; cited from earlier work
# [2] = tested on: rad30Δ S. cerevisiae strain; assay: UV sensitivity complementation (spot assay), rad30Δ strain; format: cell-based, Saccharomyces cerevisiae; settings: ADH1 promoter, UV 16–32 J/m^2, 30 °C, 3 days
# Method: Figure 1 Identification of PCNA interaction region in CaPolη.A, amino acid alignment between Ca- and Sc-Polη was carried out by EMBOSS Needle; identical amino acids are marked by ∗ and similar amino acids were marked by: symbols. All the important motifs and domains are underlined, including Motif I to V, PAD, ubz and pip. Putative pip sequences were labeled as Seq-1 through Seq-4 in the C-terminal domain. […] C, putative pip sequences of CaPolη were compared with the already identified pip motifs of other Y-family pols. D, line diagram showing various domains of Polηs and a C-terminal deletant CaPolη (1–512). E, determination of binding kinetics of wild type or truncated CaPolƞ (1–512) with CaPCNA by ITC. […] F, UV sensitivities of S. cerevisiae strains. Cells of genomic rad30Δ and rad30Δrev3Δ deletion S. cerevisiae strains harboring YEP-ADH1p or YEP-ADH1p-ScPolη or YEP-ADH1p-CaPolη or YEP-ADH1p-CaPolη (1–512) or YEP-ADH1p-CaPolη F485A,L486A plasmids from an overnight SD-Ura culture were serially diluted and spotted onto SD-Ura plates. […]
# Figure 2 Ubz domain of CaPolη is essential TLS activity.A, a line diagram showing the deletion and site-directed mutations in the ubz domain of CaPolη. […] Following UV irradiation, plates were incubated in the dark, and colonies were counted after 3 to 5 days. […]
molecule,measurement,setting,value
B1,UV sensitivity and UV-induced mutagenesis (in words),[1],enhanced UV sensitivity and UV-induced mutagenesis
same,UV sensitivity / complementation (in words),[2],abrogated its TLS function and displayed equal UV sensitivity with rad30Δ strain
